Test [1] has as its target T1, recombinant GRP78 protein (human, UniProt P11021 19-650, limits assumed).
T1 construct: also called HSPA5/GRP78 (Active Protein) Human Protein (ORIGENE, Cat. No. AR03021PU-L); glucose-regulated protein 78
Description: Biacore SPR, multi-cycle kinetics, GRP78 amine-coupled to the chip, G2D03 as analyte 0.625-10 nM, 1:1 fit, kd/ka. From the text:
(§1) This ligand has the optimum pH 4.0 condition for direct immobilization by pH scouting test. With amine coupling method, carboxyl groups on the surface of the sensor chip surface are first activated with a mixture of EDC and NHS to give reactive succinimide esters. GRP78 is then passed over the surface and the esters react with primary amine groups to link the ligand covalently to the dextran matrix. The target level of the GRP78 protein is about 300 RU.
(§2) For the multi-cycle kinetics analysis, the chip surface level is 291.2 RU and the analyte concentration is used for the moderate Rₘₐₓ, which is running through the conditions in the assay. The concentrations of the anti-GRP78 antibody G2D03 are: 0.625 nM, 1.25 nM, 2.5 nM, 5 nM and 10 nM. Set the flow rate at 30 μL/min. Association time is 120 seconds. Dissociation time is 360 seconds. Regeneration buffer is performed using 10 mM glycine-HCl pH 1.7. […] The binding affinity of the anti-GRP78 antibody G2D03 is better than the conventional anti-GRP78 antibody C38.
Background: In SPR one partner is held on a chip, and binding of the other changes the refractive index at the surface.

In test [2] the target is T1, recombinant GRP78 protein. Description: Biacore SPR, multi-cycle kinetics, GRP78 amine-coupled to the chip, G2D03 as analyte 0.625-10 nM, 1:1 fit.
Text: as §1, §2

The Kd is the equilibrium constant for the complex coming apart. By koff is commonly meant a measure of how fast the partners let go of each other. Usually kon stands for the rate constant with which the complex forms.

T1 sequence (P11021 19-650 limits assumed): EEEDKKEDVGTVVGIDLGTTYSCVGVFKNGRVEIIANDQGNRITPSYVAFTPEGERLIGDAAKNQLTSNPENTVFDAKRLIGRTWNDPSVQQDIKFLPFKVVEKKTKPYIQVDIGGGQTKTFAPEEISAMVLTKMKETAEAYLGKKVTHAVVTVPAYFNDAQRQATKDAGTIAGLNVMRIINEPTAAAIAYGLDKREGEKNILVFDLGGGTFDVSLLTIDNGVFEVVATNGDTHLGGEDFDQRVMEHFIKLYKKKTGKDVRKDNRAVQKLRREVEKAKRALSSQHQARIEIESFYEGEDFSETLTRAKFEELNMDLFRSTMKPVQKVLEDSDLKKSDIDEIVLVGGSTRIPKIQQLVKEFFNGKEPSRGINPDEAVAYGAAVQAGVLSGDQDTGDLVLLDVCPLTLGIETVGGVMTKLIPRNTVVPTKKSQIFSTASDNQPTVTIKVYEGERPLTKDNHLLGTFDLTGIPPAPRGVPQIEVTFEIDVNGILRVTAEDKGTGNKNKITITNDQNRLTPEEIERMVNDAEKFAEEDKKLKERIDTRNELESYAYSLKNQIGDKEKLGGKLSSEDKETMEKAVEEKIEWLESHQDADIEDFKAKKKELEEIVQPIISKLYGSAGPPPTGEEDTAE

B1: anti-GRP78 antibody G2D03 (antibody, V domains shown)
VH: EVQLVESGGGLVQPGGSLRLSCAASGFTFSQYAMAWVRQAPGKGLEWVSGISPYGSNTRYADSVKGRFTISRDNSKNTLYLQMNSLRAEDTAVYYCARNGGYSYTWFDLWGQGTLVTVSS
VL: DIQMTQSPSSLSASVGDRVTITCRASQSISSDLAWYQQKPGKAPKLLIYWASKLQSGVPSRFSGSGSGTDFTLTISSLQPEDFATYYCMQMYNTPPTFGQGTKVEIKR
notes: Detected with anti-human IgG; also called G2D03 mAb; anti-GRP78 monoclonal antibody (G2D03)
Take B1: the Kd in test [1] was 0.0744 nM. In test [2], the koff was 0.000254 s⁻¹ and the kon is 3.42e+06 M⁻¹ s⁻¹.

These data come from patent US20250019426A1 (UCT BIOSCIENCE, published 2025).
